{
  "source": "paper PMC5575276",
  "key": {"[1]": {"molecular_target": "TLM-core protein (2xTLM-HA-HBV core with strep-tag III in the spike tip), assembled to TLM-carrier capsid (hepatitis B virus) (UniProt P03146)", "sequence (P03146 whole entry)": "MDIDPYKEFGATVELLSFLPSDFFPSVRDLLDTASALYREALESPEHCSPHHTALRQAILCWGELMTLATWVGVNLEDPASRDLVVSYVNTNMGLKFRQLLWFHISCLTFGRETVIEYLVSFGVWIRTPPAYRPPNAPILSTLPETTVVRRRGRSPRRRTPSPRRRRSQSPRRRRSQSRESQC"}, "[2]": {"molecular_target": "streptavidin-Ova fusion protein (streptavidin, hexa-his tag, ovalbumin)", "experiment": "non-denaturing SDS-PAGE; purified and refolded protein on SDS-PAGE under non-denaturing against denaturing conditions"}, "[3]": {"molecular_target": "TLM-core protein (2xTLM-HA-HBV core with strep-tag III in the spike tip), assembled to TLM-carrier capsid (hepatitis B virus) (UniProt P03146)", "experiment": "SPR; Biacore T200; TLM-carrier capsid (TLM-core protein) immobilised on a CM5 chip; streptavidin injected at five concentrations (4.7-75.7 nM) or streptavidin-Ova at six concentrations (1.9-62.5 nM); fitted with the heterogeneous ligand and the bivalent analyte models (1:1 model fitted poorly)"}, "[4]": {"molecular_target": "recombinant hexa-his-streptavidin (UniProt P22629)", "experiment": "non-denaturing SDS-PAGE; purified and refolded protein on SDS-PAGE under non-denaturing against denaturing conditions"}},
  "data": [
    {"substance": "streptavidin-Ova fusion protein (streptavidin, hexa-his tag, ovalbumin)", "values": [
      {"measurement": "IFN-γ secreted (ELISA, 72 h) by OT-I CD8+ T-cells co-cultured with BMDCs: Ova-loaded TLM-carrier capsid compared with free streptavidin-Ova", "setting": "[1]", "result": "> 10", "unit": "fold"},
      {"measurement": "stoichiometry N", "setting": "[2]", "result": 4},
      {"measurement": "KD2 (heterogeneous ligand model, set 2, strong interaction)", "setting": "[3]", "result": 1.97, "unit": "nM"},
      {"measurement": "Ka1 (on-rate, bivalent analyte model, step 1)", "setting": "[3]", "result": 94200, "unit": "M^- s^−1"},
      {"measurement": "Ka2 (on-rate, bivalent analyte model, step 2)", "setting": "[3]", "result": 0.000428, "unit": "RU^- s^-"},
      {"measurement": "Ka2 (on-rate, heterogeneous ligand model, set 2, strong interaction)", "setting": "[3]", "result": 356000, "unit": "M^- s^−1"},
      {"measurement": "Kd1 (off-rate, bivalent analyte model, step 1)", "setting": "[3]", "result": 0.0104, "unit": "s⁻¹"},
      {"measurement": "Kd2 (off-rate, bivalent analyte model, step 2)", "setting": "[3]", "result": 0.000823, "unit": "s⁻¹"},
      {"measurement": "Kd2 (off-rate, heterogeneous ligand model, set 2, strong interaction)", "setting": "[3]", "result": 0.0007, "unit": "s⁻¹"},
      {"measurement": "dissociation half-life (t 1/2) of the strong binding interaction", "setting": "[3]", "result": 16.5, "unit": "min"}
    ]},
    {"substance": "recombinant hexa-his-streptavidin (from UniProt P22629 25-183) (natural protein)", "values": [
      {"measurement": "stoichiometry N", "setting": "[4]", "result": 4},
      {"measurement": "KD2 (heterogeneous ligand model, set 2, strong interaction)", "setting": "[3]", "result": 4.74, "unit": "nM"},
      {"measurement": "Ka1 (on-rate, bivalent analyte model, step 1)", "setting": "[3]", "result": 146000, "unit": "M^- s^−1"},
      {"measurement": "Ka2 (on-rate, bivalent analyte model, step 2)", "setting": "[3]", "result": "8.16e-05", "unit": "RU^- s^-"},
      {"measurement": "Ka2 (on-rate, heterogeneous ligand model, set 2, strong interaction)", "setting": "[3]", "result": 397000, "unit": "M^- s^−1"},
      {"measurement": "Kd1 (off-rate, bivalent analyte model, step 1)", "setting": "[3]", "result": 0.0213, "unit": "s⁻¹"},
      {"measurement": "Kd2 (off-rate, bivalent analyte model, step 2)", "setting": "[3]", "result": 0.00126, "unit": "s⁻¹"},
      {"measurement": "Kd2 (off-rate, heterogeneous ligand model, set 2, strong interaction)", "setting": "[3]", "result": 0.00188, "unit": "s⁻¹"}
    ]}
  ]
}
